Results from PMC3700536 (Nature communications, 2013).

T1: purified β2-chimaerin (UniProt P52757-1 1-468)
T1 sequence: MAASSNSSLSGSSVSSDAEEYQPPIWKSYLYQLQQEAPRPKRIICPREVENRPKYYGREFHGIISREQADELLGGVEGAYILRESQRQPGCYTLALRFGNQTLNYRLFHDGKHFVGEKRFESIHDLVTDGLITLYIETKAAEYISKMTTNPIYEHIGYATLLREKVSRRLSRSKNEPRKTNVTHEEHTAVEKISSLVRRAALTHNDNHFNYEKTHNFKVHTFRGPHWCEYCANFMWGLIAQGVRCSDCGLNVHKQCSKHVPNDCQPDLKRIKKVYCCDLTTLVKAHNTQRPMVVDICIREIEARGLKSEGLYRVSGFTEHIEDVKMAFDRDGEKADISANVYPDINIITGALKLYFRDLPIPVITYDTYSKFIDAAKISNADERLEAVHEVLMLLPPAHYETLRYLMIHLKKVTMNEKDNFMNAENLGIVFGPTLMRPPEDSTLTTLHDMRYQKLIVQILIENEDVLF


Columns and labels:
GST-Nck1 SH3-3 = GST-Nck1 SH3-3 (UniProt P16333); experiment: SPR
purified β2-chimaerin = target: T1, purified β2-chimaerin; experiment: co-sedimentation

Molecule | Kd (GST-Nck1 SH3-3) | Kd (purified β2-chimaerin)
WT-β2-chim peptide (β2-chimaerin amino acids 34–59) | 18 µM | –
Nck1 SH3-3 (purified third SH3 domain of Nck1) (domain or fragment) QVLHVVQALYPFSSSNDEELNFEKGDVMDVIEKPENDPEWWKCRKINGMVGLVPKNYVTVMQN | – | 1.7 µM
